One may read the Kd as the free concentration of one partner at which half of the binding sites on the other are occupied at equilibrium, for simple one-to-one binding. Low readings indicate higher affinity, high ones lower affinity. As a reminder, the stoichiometry N is a count of units in the complex or per binding partner.

This is an account of results in PMC3814758, “The Geminin and Idas Coiled Coils Preferentially Form a Heterodimer That Inhibits Geminin Function in DNA Replication Licensing*” (The Journal of Biological Chemistry, 2013).

The target in data set [1] is Cdt1 (115-353) (UniProt Q9H211). The data set is described as follows: ITC; 25 °C; 25 mM HEPES/NaOH pH 7.5, 150 mM NaCl, 0.5 mM Tris(2-carboxyethyl)phosphine; 28 injections of 10 μl of the protein dimers (2-80 μM) into 1.4 ml of Cdt1 (0.2-10 μM).
Data set [2] deals with T1, Cdt1 (115-353) (UniProt Q9H211 115-353).
T1 chain: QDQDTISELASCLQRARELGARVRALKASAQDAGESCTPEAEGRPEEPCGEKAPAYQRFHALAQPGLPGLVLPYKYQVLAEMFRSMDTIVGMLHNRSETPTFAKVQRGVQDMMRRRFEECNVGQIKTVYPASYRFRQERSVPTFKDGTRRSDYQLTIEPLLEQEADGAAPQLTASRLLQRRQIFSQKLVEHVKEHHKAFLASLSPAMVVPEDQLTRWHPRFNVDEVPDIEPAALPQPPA
The data set is described as follows: ITC.

Data set [3] has as its target Cdt1 (115-353) (UniProt Q9H211).
The target of data set [4] is T2, Cdt1 (115-353) (UniProt Q9H211 115-353).
T2 sequence (looked up): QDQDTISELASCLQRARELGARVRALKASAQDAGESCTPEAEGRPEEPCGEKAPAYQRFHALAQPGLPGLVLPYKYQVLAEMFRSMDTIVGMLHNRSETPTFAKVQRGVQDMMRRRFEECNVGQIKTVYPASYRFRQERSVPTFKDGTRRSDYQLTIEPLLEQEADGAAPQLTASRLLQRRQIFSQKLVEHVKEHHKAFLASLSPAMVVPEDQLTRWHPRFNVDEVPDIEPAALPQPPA
The data set is described as follows: cell-based or functional assay.

The target in data set [5] is T2, Cdt1 (115-353). In words: ITC; 25 °C; 25 mM HEPES/NaOH pH 7.5, 150 mM NaCl, 0.5 mM Tris(2-carboxyethyl)phosphine; 28 injections of 10 μl of the protein dimers (2-80 μM) into 1.4 ml of Cdt1 (0.2-10 μM). The conditions noted are these: both partners purified. (In general: In ITC the heat of successive injections is recorded.)
Data set [6] deals with the molecule itself. The data set is described as follows: SAXS; purified complexes at three concentrations each (0.5, 1.0, 2.5 mg/ml tGeminin-tGeminin; 1.0, 2.0, 6.0 mg/ml tIdas-tIdas and tIdas-tGeminin); X13 beamline, EMBL-Hamburg; Guinier plot and distance distribution.

B1: tGeminin-tGeminin homodimer (complex)
chain: TQESFDLMIKENPSSQYWKEVAEKRRKALYEALKENEKLHKEIEQKDNEIARLKKENKELAEVAEHVQYMAELIERLNG
With B1, the Kd in data set [1] came out at 0.0035 µM; in data set [2], 0.0026 µM. Moreover, in data set [3], the IC50 of inhibition of replication licensing and DNA replication of sperm DNA in Xenopus egg extract (Cdt1 of the extract), increasing concentrations of the dimer was determined as 0.05 µM.

B2: tIdas-tGeminin heterodimer (complex)
chain 1: PDVPPPEQYWKEVADQNQRALGDALVENNQLHVTLTQKQEEIASLKERNVQLKELASRTRHLASVLDKLMITQ
chain 2: TQESFDLMIKENPSSQYWKEVAEKRRKALYEALKENEKLHKEIEQKDNEIARLKKENKELAEVAEHVQYMAELIERLNG
notes: Idas (Multicilin), residues 173-245; Geminin, human, residues 82-160; Preformed heterodimer; also called tGeminin-tIdas; Idas-Geminin heterodimer; source: co-expression in Escherichia coli, purified (IMAC by the His tag on Idas, size exclusion chromatography); copies: 1 + 1
Turning to B2, in data set [4], the “IC50 of inhibition of replication licensing and DNA replication of sperm DNA in Xenopus egg extract (Cdt1 of the extract), increasing concentrations of the dimer” value is about 0.72 µM. In data set [5], the Kd was about 0.035 µM and the “dH less favourable than for tGeminin-tGeminin binding to Cdt1” value was determined as 88.3 kJ/mol.

B3: tGeminin, coiled-coil domain of Geminin (residues 82-160) (domain or fragment, human, UniProt O75496 82-160, looked up)
chain: TQESFDLMIKENPSSQYWKEVAEKRRKALYEALKENEKLHKEIEQKDNEIARLKKENKELAEVAEHVQYMAELIERLNG
notes: Geminin, human, residues 82-160 (coiled-coil construct tGeminin); Single chain, used for the rows of tGeminin with itself and with tIdas; Cloned both with a cleavable His tag and without tag; In the co-expressed complex the tag was on Idas; source: expressed on its own, or co-expressed with Idas in Escherichia coli; purified
For the molecule B3, the “stoichiometry N” value in data set [6] worked out at 2.

B4: tIdas, coiled-coil domain of Idas (residues 173-245) (domain or fragment, UniProt D6RGH6 173-245, looked up)
chain: PDVPPPEQYWKEVADQNQRALGDALVENNQLHVTLTQKQEEIASLKERNVQLKELASRTRHLASVLDKLMITQ
notes: Idas (Multicilin), residues 173-245 (coiled-coil construct tIdas); Single chain, used for the rows of tIdas with itself and with tGeminin; Cleavable His tag; also called Multicilin; source: expressed on its own, or co-expressed with Geminin in Escherichia coli; purified
B4: in data set [6], the “stoichiometry N” value amounted to 2.
